Assay results published in patent publication US20250011418A1 (ZIELBIO, published 2025).

T1: Sec8-His (section 8 (Sec8), an antigenic region of CSP-1, tagged with a polyhistidine (His) tag)
T1 construct: also called Sec8-His antigen
T1 chain: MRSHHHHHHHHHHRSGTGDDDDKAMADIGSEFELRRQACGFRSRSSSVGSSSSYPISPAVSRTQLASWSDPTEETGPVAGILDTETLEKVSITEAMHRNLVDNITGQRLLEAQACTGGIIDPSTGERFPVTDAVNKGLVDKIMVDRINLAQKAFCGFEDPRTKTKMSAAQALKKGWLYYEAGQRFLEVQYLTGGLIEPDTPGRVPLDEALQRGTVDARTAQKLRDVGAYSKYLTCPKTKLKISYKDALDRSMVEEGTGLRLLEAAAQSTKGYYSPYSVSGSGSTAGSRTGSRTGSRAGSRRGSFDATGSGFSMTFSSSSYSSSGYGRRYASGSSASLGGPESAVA


Molecular target: T1, Sec8-His (section 8 (Sec8), an …)
Assay: BLI (Octet), single shot: antibody on anti-human IgG tips, 24 nM Sec8-His
Method: After humanization, the antibodies were tested for their capability to bind to an antigenic region of CSP-1 called section 8 (Sec8). Antigen binding was assessed by single-shot Octet analysis. Antibodies were loaded onto anti-human IgG tips, and the loaded tips were dipped into wells containing the Sec8-His antigen. Scouting experiments were used to determine ideal conditions for loading (10 minute incubation in 1 μg/mL IgG) and antigen binding (5 minute incubation in 24 nM Sec8-His, followed by a 5 minute dissociation step in buffer). Two negative controls were included with each experiment. First, a tip was loaded with irrelevant IgG dipped into 24 nM Sec8-His to control for non-specific interactions between the tip and the antigen. Next, tips loaded with humanized 1D7 variants were dipped into 24 nM GST-His to control for off-target binding of the antibody (a significant risk if a given variant is destabilized and/or exposes significant hydrophobic surface). The data from the irrelevant IgG control were subtracted from the data obtained with the […]-loaded tips. The mean and standard deviation of the signal change values for the GST-His control wells were used to calculate a threshold for positive binding (mean+3 standard deviations of the GST-His signal). Variants that were below this threshold are considered to have no specific binding to Sec8.

| Binder | binding result |
| --- | --- |
| humanized anti-CSP-1 antibody, Antibody Number 16 (Table 1) (antibody, human IgG1, V domains shown, also called Antibody 16) VH: EVQLVESGGDLVKPGGSLKLSCAASGFTFSRYGMSWVRQTPDKRLEWVATISIGGTYTYYPDSMKGRFTISRDNAKNTLYLQMSSLKSEDTAMYYCARRGYGNYSYYGMDYWGQGTSVTVSS VL: DIVMTQAAFSNPVTLGTSASISCRSSKSLLHSNGITYLYWYLQKPGQSPQLLIYQMSNLASGVPDRFSSSGSGTDFTLRISRVEAEDVGVYYCAQNLELPLTFGAGTKLELK | binds |
| humanized anti-CSP-1 antibody, Antibody Number 17 (Table 1) (antibody, human IgG1, V domains shown, also called Antibody 17) VH: EVQLVESGGDLVKPGGSLKLSCAASGFTFSRYGMSWVRQTPDKRLEWVATISIGGTYTYYPDSMKGRFTISRDNAKNTLYLQMSSLKSEDTAMYYCARRGYGSYSYYGMDYWGQGTSVTVSS VL: DIVMTQAAFSNPVTLGTSASISCRSSKSLLHSNGITYLYWYLQKPGQSPQLLIYQMSNLASGVPDRFSSSGSGTDFTLRISRVEAEDVGVYYCAQNLELPLTFGAGTKLELK | binds |
| humanized anti-CSP-1 antibody, Antibody Number 21 (Table 1) (antibody, human IgG1, V domains shown, also called Antibody 21) VH: EVQLVESGGDLVKPGGSLKLSCAASGFTFSRYGMSWVRQTPDKRLEWVATISIGGTYTYYPDSMKGRFTISRDNAKNTLYLQMSSLKSEDTAMYYCARRGYGNYSYYGVDYWGQGTSVTVSS VL: DIVMTQAAFSNPVTLGTSASISCRSSKSLLHSNGITYLYWYLQKPGQSPQLLIYQMSNLASGVPDRFSSSGSGTDFTLRISRVEAEDVGVYYCAQNLELPLTFGAGTKLELK | binds |
| humanized anti-CSP-1 antibody, Antibody Number 18 (Table 1) (antibody, human IgG1, V domains shown, also called Antibody 18) VH: EVQLVESGGDLVKPGGSLKLSCAASGFTFSRYGMSWVRQTPDKRLEWVATISIGGTYTYYPDSMKGRFTISRDNAKNTLYLQMSSLKSEDTAMYYCARRGYGQYSYYGMDYWGQGTSVTVSS VL: DIVMTQAAFSNPVTLGTSASISCRSSKSLLHSNGITYLYWYLQKPGQSPQLLIYQMSNLASGVPDRFSSSGSGTDFTLRISRVEAEDVGVYYCAQNLELPLTFGAGTKLELK | binds |
| humanized anti-CSP-1 antibody, Antibody Number 20 (Table 1) (antibody, human IgG1, V domains shown, also called Antibody 20) VH: EVQLVESGGDLVKPGGSLKLSCAASGFTFSRYGMSWVRQTPDKRLEWVATISIGGTYTYYPDSMKGRFTISRDNAKNTLYLQMSSLKSEDTAMYYCARRGYGNYSYYGIDYWGQGTSVTVSS VL: DIVMTQAAFSNPVTLGTSASISCRSSKSLLHSNGITYLYWYLQKPGQSPQLLIYQMSNLASGVPDRFSSSGSGTDFTLRISRVEAEDVGVYYCAQNLELPLTFGAGTKLELK | binds |
| humanized anti-CSP-1 antibody, Antibody Number 19 (Table 1) (antibody, human IgG1, V domains shown, also called Antibody 19) VH: EVQLVESGGDLVKPGGSLKLSCAASGFTFSRYGMSWVRQTPDKRLEWVATISIGGTYTYYPDSMKGRFTISRDNAKNTLYLQMSSLKSEDTAMYYCARRGYGNYSYYGLDYWGQGTSVTVSS VL: DIVMTQAAFSNPVTLGTSASISCRSSKSLLHSNGITYLYWYLQKPGQSPQLLIYQMSNLASGVPDRFSSSGSGTDFTLRISRVEAEDVGVYYCAQNLELPLTFGAGTKLELK | binds |
| humanized anti-CSP-1 antibody, Antibody Number 2 (Table 1) (antibody, human IgG1, V domains shown, also called Antibody 2) VH: QIQLVQSGPELKKPGETVKISCKASGYTFTDYSMHWVKQAPGKGLKWMGWIQTETGEPTYADDFKGRFAFSLETSASTAYLQINNLKNEDTATYFCAPGGFAYWGQGTLVTVSA VL: DIVMTQAAPSVPVTPGESVSISCRSSKSLLHSNGNTYLYWFLQRPGQSPQLLIYRMSNLASGVPDRFSGSGSGTAFTLRISRVEAEDVGVYYCMQHLEYPLTFGAGTKLELK | binds |
| humanized anti-CSP-1 antibody, Antibody Number 11 (Table 1) (antibody, human IgG1, V domains shown, also called Antibody 11) VH: QIQLVQSGPEVKKPGASVKISCKASGYTFTDYSMHWVKQAPGQGLKWMGWINTETGEPTYADDFKGRFTFTLDTSTSTAYLEISSLRSEDTATYFCAPGGFAYWGQGTLVTVSS VL: DIVMTQSAPSVPVTPGQSVSISCRSSKSLLHSNGNTYLYWFLQKPGQSPQLLIYRMSNRASGVPDRFSGSGSGTDFTLKISRVEAEDVGVYYCMQHLEYPLTFGQGTKLEIK | binds |
| humanized anti-CSP-1 antibody, Antibody Number 15 (Table 1) (antibody, human IgG1, V domains shown, also called Antibody 15) VH: QIQLVQSGPGLKQPGGSVRISCAASGYTFTDYSMHWVKQAPGKGLKWMGWINTETGEPTYADDFKGRFTFSLDTSKSTAYLQINSLRAEDTATYFCAPGGFAYWGQGTLVTVSS VL: DIVMTQSAPSLPVTPGQSVSISCRSSKSLLHSNGNTYLYWFLQKPGQSPQLLIYRMSNRASGVPDRFSGSGSGTDFTLKISRVEAEDVGVYYCMQHLEYPLTFGQGTKLEIK | binds |
| humanized anti-CSP-1 antibody, Antibody Number 3 (Table 1) (antibody, human IgG1, V domains shown, also called Antibody 3) VH: QIQLVQSGPELKKPGETVKISCKASGYTFTDYSMHWVKQAPGKGLKWMGWINTETGEPTYADDFKGRFAFSLETSASTAYLQINNLKNEDTATYFCAPGGFAYWGQGTLVTVSA VL: DIVMTQAAPSVPVTPGESVSISCRSSKSLLHSSGNTYLYWFLQRPGQSPQLLIYRMSNLASGVPDRFSGSGSGTAFTLRISRVEAEDVGVYYCMQHLEYPLTFGAGTKLELK | binds |
| humanized anti-CSP-1 antibody, Antibody Number 4 (Table 1) (antibody, human IgG1, V domains shown, also called Antibody 4) VH: QIQLVQSGPELKKPGETVKISCKASGYTFTDYSMHWVKQAPGKGLKWMGWINTETGEPTYADDFKGRFAFSLETSASTAYLQINNLKNEDTATYFCAPGGFAYWGQGTLVTVSA VL: DIVMTQAAPSVPVTPGESVSISCRSSKSLLHSNGNTYLYWFLQRPGQSPQLLIYRVSNLASGVPDRFSGSGSGTAFTLRISRVEAEDVGVYYCMQHLEYPLTFGAGTKLELK | binds |
| humanized anti-CSP-1 antibody, Antibody Number 9 (Table 1) (antibody, human IgG1, V domains shown, also called Antibody 9) VH: QIQLVQSGPELKKPGETVKISCKASGYTFTDYSMHWVKQAPGKGLKWMGWINTETGEPTYADDFKGRFAFSLETSASTAYLQINNLKNEDTATYFCAPGGFAYWGQGTLVTVSA VL: DIVMTQSAPSVPVTPGQSVSISCRSSKSLLHSNGNTYLYWFLQKPGQSPQLLIYRMSNRASGVPDRFSGSGSGTDFTLKISRVEAEDVGVYYCMQHLEYPLTFGQGTKLEIK | binds |
| humanized anti-CSP-1 antibody, Antibody Number 7 (Table 1) (antibody, human IgG1, V domains shown, also called Antibody 7) VH: QIQLVQSGPEVKKPGASVKISCKASGYTFTDYSMHWVKQAPGQGLKWMGWINTETGEPTYADDFKGRFTFTLDTSTSTAYLEISSLRSEDTATYFCAPGGFAYWGQGTLVTVSS VL: DIVMTQAAPSVPVTPGESVSISCRSSKSLLHSNGNTYLYWFLQRPGQSPQLLIYRMSNLASGVPDRFSGSGSGTAFTLRISRVEAEDVGVYYCMQHLEYPLTFGAGTKLELK | binds |
| humanized anti-CSP-1 antibody, Antibody Number 6 (Table 1) (antibody, human IgG1, V domains shown, also called Antibody 6) VH: QIQLVQSGPELKKPGETVKISCKASGYTFTDYSMHWVKQAPGKGLKWMGWINTETGEPTYADDFKGRFAFSLETSASTAYLQINNLKNEDTATYFCAPGGFAYWGQGTLVTVSA VL: DIVMTQAAPSVPVTPGESVSISCRSSKSLLHSNGNTYLYWFLQRPGQSPQLLIYRISNLASGVPDRFSGSGSGTAFTLRISRVEAEDVGVYYCMQHLEYPLTFGAGTKLELK | binds |
| humanized anti-CSP-1 antibody, Antibody Number 14 (Table 1) (antibody, human IgG1, V domains shown, also called Antibody 14) VH: QIQLVQSGPGLKQPGGSVRISCAASGYTFTDYSMHWVKQAPGKGLKWMGWINTETGEPTYADDFKGRFTFSLDTSKSTAYLQINSLRAEDTATYFCAPGGFAYWGQGTLVTVSS VL: DIVMTQSAPSVPVTPGQSVSISCRSSKSLLHSNGNTYLYWFLQKPGQSPQLLIYRMSNRASGVPDRFSGSGSGTDFTLKISRVEAEDVGVYYCMQHLEYPLTFGQGTKLEIK | binds |
| humanized anti-CSP-1 antibody, Antibody Number 12 (Table 1) (antibody, human IgG1, V domains shown, also called Antibody 12) VH: QIQLVQSGPEVKKPGASVKISCKASGYTFTDYSMHWVKQAPGQGLKWMGWINTETGEPTYADDFKGRFTFTLDTSTSTAYLEISSLRSEDTATYFCAPGGFAYWGQGTLVTVSS VL: DIVMTQSAPSLPVTPGQSVSISCRSSKSLLHSNGNTYLYWFLQKPGQSPQLLIYRMSNRASGVPDRFSGSGSGTDFTLKISRVEAEDVGVYYCMQHLEYPLTFGQGTKLEIK | binds |
| humanized anti-CSP-1 antibody, Antibody Number 10 (Table 1) (antibody, human IgG1, V domains shown, also called Antibody 10) VH: QIQLVQSGPELKKPGETVKISCKASGYTFTDYSMHWVKQAPGKGLKWMGWINTETGEPTYADDFKGRFAFSLETSASTAYLQINNLKNEDTATYFCAPGGFAYWGQGTLVTVSA VL: DIVMTQSAPSLPVTPGQSVSISCRSSKSLLHSNGNTYLYWFLQKPGQSPQLLIYRMSNRASGVPDRFSGSGSGTDFTLKISRVEAEDVGVYYCMQHLEYPLTFGQGTKLEIK | binds |
| humanized anti-CSP-1 antibody, Antibody Number 5 (Table 1) (antibody, human IgG1, V domains shown, also called Antibody 5) VH: QIQLVQSGPELKKPGETVKISCKASGYTFTDYSMHWVKQAPGKGLKWMGWINTETGEPTYADDFKGRFAFSLETSASTAYLQINNLKNEDTATYFCAPGGFAYWGQGTLVTVSA VL: DIVMTQAAPSVPVTPGESVSISCRSSKSLLHSNGNTYLYWFLQRPGQSPQLLIYRLSNLASGVPDRFSGSGSGTAFTLRISRVEAEDVGVYYCMQHLEYPLTFGAGTKLELK | binds |
| humanized anti-CSP-1 antibody, Antibody Number 13 (Table 1) (antibody, human IgG1, V domains shown, also called Antibody 13) VH: QIQLVQSGPEVKKPGASVKISCKASGYTFTDYSMHWVRQAPGQGLEWMGWINTETGEPTYAQKFQGRFTFTLDTSTSTAYLEISSLRSEDTAVYFCAPGGFAYWGQGTLVTVSS VL: DIVMTQSAPSVPVTPGQSVSISCRSSKSLLHSNGNTYLYWFLQKPGQSPQLLIYRMSNRASGVPDRFSGSGSGTDFTLKISRVEAEDVGVYYCMQHLEYPLTFGQGTKLEIK | binds |
